Results taken from the supplement of paper PMC10065799, “High-throughput profiling of sequence recognition by tyrosine kinases and SH2 domains using bacterial peptide display” (eLife, 2023).

How the values were obtained:
EPHB2 = EPHB2 (UniProt P29323); test: phosphorylation enrichment, bacterial display (enrichment ratio); higher = better substrate or ligand; peptides without Tyr show the background
MERTK = MERTK (UniProt Q12866); test: as above
Hck = Hck (UniProt P08631); test: as above
c-Src = test: as above
Fes = Fes (UniProt P07332); test: as above
FGFR1 = FGFR1 (UniProt P11362); test: as above
Fer (mouse) = test: as above
EPHB1 = EPHB1 (UniProt P54762); test: as above
c-Abl (mouse) = test: as above
Jak2 = Jak2 (UniProt O60674); test: as above
FGFR3 = FGFR3 (UniProt P22607); test: as above
AncSZ = test: as above
Fyn = Fyn (UniProt P06241); test: as above
c-Src SH2 = test: SH2 binding enrichment of the phosphorylated peptide, bacterial display (enrichment ratio); higher = better substrate or ligand; peptides without Tyr show the background
Grb2 SH2 = Grb2 SH2 (UniProt P62993); test: as above
SHP2-C SH2 = test: as above
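Wherever SH2 binding enrichment of the phosphorylated peptide, bacterial display is given: peptide library displayed on the E. coli surface as eCPX fusions, selected cells deep-sequenced, score is each peptide's frequency after selection divided by its frequency in the input.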
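Wherever phosphorylation enrichment, bacterial display is given: 11-residue human phosphosite peptides and single-mutation variants displayed on the E. coli surface, counted by deep sequencing, each peptide's frequency after selection divided by its frequency in the unselected input library; frequency after pTyr selection over input frequency; kinase dosed for 20-30% of maximal phosphorylation in three min.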

Sequence of Fes (P07332 whole entry, looked up): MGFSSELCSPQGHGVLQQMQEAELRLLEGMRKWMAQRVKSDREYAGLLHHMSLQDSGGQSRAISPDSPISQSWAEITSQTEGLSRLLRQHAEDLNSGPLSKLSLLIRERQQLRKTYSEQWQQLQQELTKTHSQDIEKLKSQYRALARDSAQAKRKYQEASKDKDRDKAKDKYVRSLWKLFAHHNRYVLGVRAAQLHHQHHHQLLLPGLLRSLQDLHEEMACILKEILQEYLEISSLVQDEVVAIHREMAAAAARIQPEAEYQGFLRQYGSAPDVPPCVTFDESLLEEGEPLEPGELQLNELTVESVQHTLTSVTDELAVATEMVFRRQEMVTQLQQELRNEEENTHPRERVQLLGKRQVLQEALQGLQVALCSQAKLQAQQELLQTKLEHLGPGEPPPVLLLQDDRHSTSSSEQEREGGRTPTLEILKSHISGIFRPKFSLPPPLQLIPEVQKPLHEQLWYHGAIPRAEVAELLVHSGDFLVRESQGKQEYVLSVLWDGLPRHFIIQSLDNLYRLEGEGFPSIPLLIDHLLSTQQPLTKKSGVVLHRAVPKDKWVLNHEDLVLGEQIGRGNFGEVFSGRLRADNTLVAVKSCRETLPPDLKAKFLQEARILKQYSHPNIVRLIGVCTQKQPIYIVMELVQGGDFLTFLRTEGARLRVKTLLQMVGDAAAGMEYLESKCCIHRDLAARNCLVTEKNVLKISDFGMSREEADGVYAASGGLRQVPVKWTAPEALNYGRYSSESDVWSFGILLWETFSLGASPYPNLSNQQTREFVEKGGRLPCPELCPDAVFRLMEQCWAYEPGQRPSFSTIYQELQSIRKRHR
Sequence of Jak2 (O60674 whole entry, looked up): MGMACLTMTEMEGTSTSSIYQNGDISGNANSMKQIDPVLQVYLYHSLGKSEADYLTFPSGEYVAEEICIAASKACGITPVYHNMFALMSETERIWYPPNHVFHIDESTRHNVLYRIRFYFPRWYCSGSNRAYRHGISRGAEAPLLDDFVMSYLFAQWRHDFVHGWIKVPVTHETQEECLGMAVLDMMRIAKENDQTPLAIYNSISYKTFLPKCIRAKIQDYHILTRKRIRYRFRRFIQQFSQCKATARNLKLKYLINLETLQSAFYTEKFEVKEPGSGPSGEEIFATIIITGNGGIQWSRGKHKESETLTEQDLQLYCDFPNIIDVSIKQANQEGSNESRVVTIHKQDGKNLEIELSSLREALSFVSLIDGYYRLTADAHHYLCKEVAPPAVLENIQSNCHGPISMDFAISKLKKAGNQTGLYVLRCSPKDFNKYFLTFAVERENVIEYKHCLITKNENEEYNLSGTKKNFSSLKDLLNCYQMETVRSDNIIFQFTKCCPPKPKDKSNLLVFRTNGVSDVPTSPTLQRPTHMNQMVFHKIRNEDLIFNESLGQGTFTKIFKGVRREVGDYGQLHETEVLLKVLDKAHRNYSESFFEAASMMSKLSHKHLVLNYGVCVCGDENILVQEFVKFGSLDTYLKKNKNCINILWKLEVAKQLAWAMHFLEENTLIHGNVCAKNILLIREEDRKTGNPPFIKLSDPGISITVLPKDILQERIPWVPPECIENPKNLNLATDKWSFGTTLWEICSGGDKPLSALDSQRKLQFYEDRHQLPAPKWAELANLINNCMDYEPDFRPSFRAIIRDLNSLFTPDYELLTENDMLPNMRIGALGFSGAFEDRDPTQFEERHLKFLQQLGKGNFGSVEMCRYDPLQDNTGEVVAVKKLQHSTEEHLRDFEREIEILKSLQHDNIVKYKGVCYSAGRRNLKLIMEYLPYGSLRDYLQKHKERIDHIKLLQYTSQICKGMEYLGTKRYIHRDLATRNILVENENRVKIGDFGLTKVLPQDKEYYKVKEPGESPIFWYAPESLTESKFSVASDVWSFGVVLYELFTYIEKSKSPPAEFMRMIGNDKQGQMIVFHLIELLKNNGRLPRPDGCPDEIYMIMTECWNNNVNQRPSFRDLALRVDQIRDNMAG
Sequence of Fyn (P06241 whole entry, looked up): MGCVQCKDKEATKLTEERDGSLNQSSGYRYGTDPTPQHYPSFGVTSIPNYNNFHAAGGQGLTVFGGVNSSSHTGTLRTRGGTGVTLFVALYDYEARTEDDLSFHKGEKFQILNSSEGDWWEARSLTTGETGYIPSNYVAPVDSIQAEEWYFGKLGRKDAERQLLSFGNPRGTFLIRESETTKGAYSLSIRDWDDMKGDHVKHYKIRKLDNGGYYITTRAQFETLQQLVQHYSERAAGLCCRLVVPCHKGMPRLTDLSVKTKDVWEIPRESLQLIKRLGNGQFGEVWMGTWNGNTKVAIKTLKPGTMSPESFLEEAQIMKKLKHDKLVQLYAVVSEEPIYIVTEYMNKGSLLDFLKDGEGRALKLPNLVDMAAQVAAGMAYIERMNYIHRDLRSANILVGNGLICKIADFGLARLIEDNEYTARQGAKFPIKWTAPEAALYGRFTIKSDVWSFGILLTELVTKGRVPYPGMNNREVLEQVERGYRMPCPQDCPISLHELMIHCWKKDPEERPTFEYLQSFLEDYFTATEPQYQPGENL
Sequence of MERTK (Q12866 whole entry, looked up): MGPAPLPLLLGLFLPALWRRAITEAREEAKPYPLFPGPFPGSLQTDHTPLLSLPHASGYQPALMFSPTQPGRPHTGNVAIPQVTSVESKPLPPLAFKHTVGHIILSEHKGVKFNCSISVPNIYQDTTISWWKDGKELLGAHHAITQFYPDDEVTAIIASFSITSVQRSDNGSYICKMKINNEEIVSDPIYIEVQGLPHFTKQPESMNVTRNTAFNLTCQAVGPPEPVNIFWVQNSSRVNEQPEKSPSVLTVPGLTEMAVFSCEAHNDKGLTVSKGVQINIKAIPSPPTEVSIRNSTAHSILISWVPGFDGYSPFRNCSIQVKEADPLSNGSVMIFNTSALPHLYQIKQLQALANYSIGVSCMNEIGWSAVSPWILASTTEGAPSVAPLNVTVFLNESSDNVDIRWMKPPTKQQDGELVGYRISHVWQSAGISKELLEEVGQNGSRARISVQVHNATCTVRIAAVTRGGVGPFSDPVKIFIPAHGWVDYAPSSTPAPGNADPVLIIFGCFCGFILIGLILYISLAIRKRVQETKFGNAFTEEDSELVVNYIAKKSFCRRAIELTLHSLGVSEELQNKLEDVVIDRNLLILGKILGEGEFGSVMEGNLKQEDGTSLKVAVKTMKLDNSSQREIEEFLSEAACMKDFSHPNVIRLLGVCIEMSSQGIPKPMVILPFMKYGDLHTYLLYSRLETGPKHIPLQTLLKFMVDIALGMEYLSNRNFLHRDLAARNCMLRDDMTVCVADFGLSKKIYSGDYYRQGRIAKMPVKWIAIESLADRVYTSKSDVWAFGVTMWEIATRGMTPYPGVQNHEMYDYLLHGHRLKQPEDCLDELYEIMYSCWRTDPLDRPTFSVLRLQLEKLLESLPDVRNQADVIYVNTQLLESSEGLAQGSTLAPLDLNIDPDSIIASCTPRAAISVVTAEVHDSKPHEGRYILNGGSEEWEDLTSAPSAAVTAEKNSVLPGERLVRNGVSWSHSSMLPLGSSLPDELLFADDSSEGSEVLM
Sequence of FGFR3 (P22607 whole entry, looked up): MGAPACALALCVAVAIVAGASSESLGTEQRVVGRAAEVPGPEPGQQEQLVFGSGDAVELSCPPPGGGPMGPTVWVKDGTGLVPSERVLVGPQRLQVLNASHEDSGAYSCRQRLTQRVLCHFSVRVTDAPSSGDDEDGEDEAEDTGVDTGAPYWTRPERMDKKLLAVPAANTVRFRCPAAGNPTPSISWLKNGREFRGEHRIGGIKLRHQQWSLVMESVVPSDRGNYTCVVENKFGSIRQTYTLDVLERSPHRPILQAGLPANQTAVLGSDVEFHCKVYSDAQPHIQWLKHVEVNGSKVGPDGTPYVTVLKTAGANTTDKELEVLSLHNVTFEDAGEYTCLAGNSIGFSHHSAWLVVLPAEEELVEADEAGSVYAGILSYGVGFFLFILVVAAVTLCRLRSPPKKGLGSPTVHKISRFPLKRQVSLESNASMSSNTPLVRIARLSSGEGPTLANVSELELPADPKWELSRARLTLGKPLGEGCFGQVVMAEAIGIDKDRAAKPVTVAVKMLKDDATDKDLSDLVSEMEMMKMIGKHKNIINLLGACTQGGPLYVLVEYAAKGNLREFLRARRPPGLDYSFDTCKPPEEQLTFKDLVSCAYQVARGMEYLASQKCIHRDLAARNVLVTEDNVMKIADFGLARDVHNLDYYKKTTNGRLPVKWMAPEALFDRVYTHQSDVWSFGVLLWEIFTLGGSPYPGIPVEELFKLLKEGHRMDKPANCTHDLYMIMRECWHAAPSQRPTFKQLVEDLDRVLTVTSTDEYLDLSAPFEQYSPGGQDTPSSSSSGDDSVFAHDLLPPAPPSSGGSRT
Sequence of Grb2 SH2 (P62993 whole entry, looked up): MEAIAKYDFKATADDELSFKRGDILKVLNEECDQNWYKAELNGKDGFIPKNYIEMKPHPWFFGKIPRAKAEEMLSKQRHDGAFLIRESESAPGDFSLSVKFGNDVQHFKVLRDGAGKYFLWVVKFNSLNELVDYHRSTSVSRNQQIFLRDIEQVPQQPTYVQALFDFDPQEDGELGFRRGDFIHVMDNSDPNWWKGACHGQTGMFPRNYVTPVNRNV
Sequence of Hck (P08631 whole entry, looked up): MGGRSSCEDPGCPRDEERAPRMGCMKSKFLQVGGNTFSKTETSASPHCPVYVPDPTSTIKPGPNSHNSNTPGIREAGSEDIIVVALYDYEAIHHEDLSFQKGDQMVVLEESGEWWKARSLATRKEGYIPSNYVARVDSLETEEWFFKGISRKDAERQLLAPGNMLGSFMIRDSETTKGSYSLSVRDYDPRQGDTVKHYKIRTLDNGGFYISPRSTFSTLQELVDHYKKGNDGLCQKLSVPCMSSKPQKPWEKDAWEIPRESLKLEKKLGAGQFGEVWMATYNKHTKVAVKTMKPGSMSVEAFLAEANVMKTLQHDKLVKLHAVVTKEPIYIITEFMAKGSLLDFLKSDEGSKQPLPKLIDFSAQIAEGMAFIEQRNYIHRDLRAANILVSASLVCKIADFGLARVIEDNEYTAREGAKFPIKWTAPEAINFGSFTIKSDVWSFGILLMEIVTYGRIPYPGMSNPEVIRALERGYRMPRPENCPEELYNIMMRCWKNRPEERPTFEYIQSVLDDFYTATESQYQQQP

Sequence | phosphorylation enrichment (EPHB2) | phosphorylation enrichment (MERTK) | phosphorylation enrichment (Hck) | phosphorylation enrichment (c-Src) | phosphorylation enrichment (Fes) | phosphorylation enrichment (FGFR1) | phosphorylation enrichment (Fer (mouse)) | phosphorylation enrichment (EPHB1) | phosphorylation enrichment (c-Abl (mouse)) | phosphorylation enrichment (Jak2) | phosphorylation enrichment (FGFR3) | phosphorylation enrichment (AncSZ) | phosphorylation enrichment (Fyn) | SH2 binding enrichment (c-Src SH2) | SH2 binding enrichment (Grb2 SH2) | SH2 binding enrichment (SHP2-C SH2)
LDFNEYVRDLN [HPRT1_Y198_F199V_YF] | 0.665 | 0.556 | 0.707 | 0.567 | 1.47 | 0.532 | 0.634 | 0.804 | 0.911 | 1.31 | 0.628 | 1.69 | 0.674 | 0.617 | 1.13 | 0.795
LDYNEYVRDLN [HPRT1_Y198_F199V] | 0.993 | 0.441 | 0.712 | 0.565 | 1.23 | 0.951 | 0.535 | 0.761 | 0.587 | 1.06 | 1.07 | 1.63 | 0.695 | 0.757 | 0.795 | 1.03
LEAVSYSSRYA [RNLS_Y190] | 0.446 | 0.63 | 0.437 | 0.368 | 0.704 | 0.415 | 0.433 | 0.453 | 0.459 | 0.685 | 0.462 | 0.687 | 0.389 | 0.498 | 0.772 | 0.748
LEFGDYHPLKP [VPS35L_Y32] | 1.26 | 1.66 | 4.28 | 0.821 | 1.05 | 11.5 | 0.846 | 1.3 | 1.19 | 6.7 | 7.68 | 2.75 | 0.696 | 0.58 | 0.902 | 0.733
LEGEEYRMSGE [KRT3_Y511] | 0.598 | 0.462 | 0.531 | 0.525 | 1.41 | 0.574 | 0.937 | 0.891 | 0.956 | 1.58 | 0.929 | 1.69 | 0.797 | 0.461 | 0.908 | 0.562
LEGKEYRMSGE [KRT3_Y511_E509K] | 0.333 | 0.439 | 0.409 | 0.415 | 0.985 | 0.432 | 0.455 | 0.434 | 0.583 | 0.923 | 0.618 | 0.73 | 0.456 | 0.362 | 0.85 | 1.12
LEISPYMLSGR [LRRK2_Y1718] | 1.1 | 0.588 | 0.932 | 0.929 | 1.28 | 0.718 | 0.806 | 1.02 | 0.491 | 0.64 | 0.652 | 0.852 | 1.44 | 0.781 | 0.9 | 0.722
LEYNEYFRDLN [HPRT1_Y198_D194E] | 0.975 | 0.605 | 0.847 | 1.14 | 2.09 | 1.89 | 0.804 | 1.18 | 1.3 | 2.17 | 1.75 | 2.6 | 1.01 | 0.451 | 0.998 | 0.592
LFSINYLHFGD [KDM4C_Y201_E206D_YF] | 0.538 | 0.783 | 0.71 | 0.612 | 1.56 | 1.07 | 0.813 | 1.19 | 0.968 | 1.56 | 1.22 | 1.32 | 0.561 | 1.24 | 1.5 | 1.23
LGSNGCKKLLK [SEPSECS_Y334_Y334C] | 1.04 | 0.866 | 0.768 | 0.663 | 0.826 | 0.661 | 0.472 | 0.611 | 1.06 | 1.06 | 0.868 | 0.823 | 0.567 | 0.849 | 1.02 | 0.786
LGSNTYPFLLM [SAG_Y120_T125M] | 0.783 | 0.36 | 0.492 | 0.713 | 1.73 | 1.91 | 0.646 | 0.835 | 1.05 | 1.31 | 1.86 | 1.12 | 0.384 | 0.427 | 0.808 | 0.435
LHAAAYWNALA [UQCRC2_Y182_R183W] | 0.572 | 0.461 | 0.428 | 0.424 | 0.882 | 0.379 | 0.385 | 0.419 | 0.582 | 0.926 | 0.564 | 0.769 | 0.388 | 1.11 | 1.36 | 1.24
LHQSTYQCFDV [SLC7A14_Y693_R695C_YF] | 0.896 | 2.26 | 1.42 | 5.09 | 1.25 | 1.14 | 2.23 | 2.34 | 1.05 | 1.14 | 1.11 | 1.25 | 3.33 | 0.455 | 0.688 | 0.56
LHSEAYLKYNE [PBRM1_Y1610_I1614N] | 0.45 | 0.397 | 0.395 | 0.586 | 0.757 | 0.409 | 0.311 | 0.393 | 1.25 | 0.744 | 0.585 | 0.751 | 0.35 | 0.497 | 0.955 | 0.862
LIEQAYDNLHE [PRPF8_Y871_P874L] | 0.877 | 0.426 | 1.15 | 0.325 | 1.38 | 0.6 | 0.821 | 0.623 | 0.479 | 0.593 | 1.05 | 1.44 | 0.714 | 5.09 | 0.736 | 0.626
LISVSYDDWDY [GRIN2A_Y281] | 0.827 | 0.691 | 0.666 | 0.652 | 1.92 | 0.901 | 4.25 | 0.813 | 1.01 | 1.35 | 1.05 | 2.2 | 0.773 | 1.9 | 1.07 | 1.39
LITSVYGCSRQ [TMPRSS6_Y290] | 1 | 0.545 | 1.83 | 1.7 | 1.25 | 1.04 | 0.716 | 0.989 | 1.27 | 1.24 | 1.21 | 1.39 | 1.57 | 0.511 | 0.863 | 0.628

Sequence | phosphorylation enrichment (EPHB2) | phosphorylation enrichment (MERTK) | phosphorylation enrichment (Hck) | phosphorylation enrichment (c-Src) | phosphorylation enrichment (Fes) | phosphorylation enrichment (FGFR1) | phosphorylation enrichment (Fer (mouse)) | phosphorylation enrichment (EPHB1) | phosphorylation enrichment (c-Abl (mouse)) | phosphorylation enrichment (Jak2) | phosphorylation enrichment (FGFR3) | phosphorylation enrichment (AncSZ) | phosphorylation enrichment (Fyn) | SH2 binding enrichment (c-Src SH2) | SH2 binding enrichment (Grb2 SH2) | SH2 binding enrichment (SHP2-C SH2)
LITTLYIGFLG [KCNQ1_Y267] | 1.12 | 0.989 | 1.51 | 3.29 | 2.46 | 0.712 | 0.929 | 1.19 | 2.22 | 2.33 | 1.89 | 2.41 | 2.11 | 1.02 | 1.06 | 0.808
LLKMMYLMLDN [STAT1_Y203_K201M] | 0.693 | 0.597 | 0.644 | 0.611 | 1.51 | 0.874 | 0.603 | 0.946 | 1.07 | 0.991 | 0.902 | 1.08 | 0.584 | 1.44 | 1.63 | 1.39
LLREWYMIISR [HUWE1_Y4066] | 0.792 | 0.433 | 0.441 | 0.419 | 1.45 | 0.708 | 0.723 | 0.703 | 0.931 | 1.3 | 1.1 | 1.35 | 0.588 | 1.37 | 1.71 | 1.5
LNLDTYQKRLR [PLA2G2D_Y126_R121L] | 0.42 | 0.511 | 0.518 | 0.442 | 0.613 | 0.69 | 0.336 | 0.44 | 0.502 | 0.389 | 0.518 | 0.517 | 0.672 | 0.39 | 0.797 | 0.63
LNNIIYRVERA [CUX2_Y1470] | 0.958 | 0.43 | 0.738 | 1.33 | 1.34 | 0.825 | 0.748 | 0.87 | 0.864 | 1.22 | 0.816 | 1.48 | 0.936 | 0.558 | 1.13 | 1.62
LPHVIYCRLWC [SMAD2_Y128_R133C] | 3.17 | 2.98 | 6.12 | 4.81 | 1.35 | 0.557 | 0.851 | 7.33 | 4.33 | 1.95 | 0.645 | 1.12 | 5.86 | 1.42 | 1.76 | 1.49
LPPREYVVVPS [CAPN1_Y494_G492R] | 4.02 | 0.631 | 1.73 | 0.48 | 2.17 | 2.83 | 1.73 | 3.78 | 0.726 | 1.04 | 2.46 | 2.29 | 1.41 | 1.17 | 0.918 | 1.03
LQPNNYQFCGG [CSF1R_Y969] | 2.2 | 1.6 | 0.86 | 0.632 | 1.18 | 1.04 | 0.627 | 4.08 | 2.74 | 1.24 | 1.09 | 1.49 | 1.14 | 1.44 | 1.24 | 0.889
LRFDVYGGENE [STOX1_Y610_E608D_YF] | 0.644 | 0.405 | 0.498 | 0.528 | 1.29 | 0.509 | 0.594 | 0.596 | 0.793 | 1.22 | 0.629 | 1.09 | 0.539 | 0.523 | 0.943 | 0.798
LRFKQYLRNPP [SHC1_Y315] | 1.8 | 0.564 | 1.04 | 0.642 | 1.11 | 0.865 | 0.623 | 0.562 | 0.847 | 1.17 | 0.767 | 0.957 | 0.551 | 0.477 | 0.786 | 0.591
LRWREYQRQDY [PRKRIP1_Y90_R87W] | 0.761 | 0.409 | 0.453 | 0.486 | 0.957 | 0.626 | 0.376 | 0.439 | 0.737 | 0.997 | 0.585 | 1.12 | 0.574 | 1.26 | 1.46 | 1.32
LSDGPYSNSYE [EPOR_Y485_P488S] | 0.67 | 0.622 | 0.664 | 0.968 | 1.2 | 0.862 | 0.604 | 0.944 | 0.762 | 1.38 | 1.02 | 1.24 | 0.59 | 1.56 | 0.557 | 0.523
LSGVIYVILWK [PMP22_Y153_R157W] | 0.538 | 0.666 | 0.538 | 0.752 | 1.95 | 0.358 | 0.583 | 0.809 | 0.996 | 1.55 | 0.652 | 1.44 | 0.304 | 0.595 | 1.45 | 0.99
LSKDLYLISQM [LARP4_Y141] | 1.29 | 0.703 | 0.836 | 0.639 | 1.63 | 0.933 | 0.918 | 1.59 | 1.06 | 1.28 | 1.41 | 1.78 | 0.828 | 0.413 | 0.912 | 1.08
LSPPVYLTNEW [NRK_Y885_I880L] | 0.851 | 0.616 | 0.651 | 0.909 | 1.26 | 0.702 | 0.636 | 0.736 | 1.21 | 1.54 | 0.758 | 0.935 | 0.587 | 0.58 | 0.959 | 0.715
LSSNLYYRWLT [CNGA3_Y168_P163L] | 8.33 | 20.4 | 15.2 | 6.55 | 3.38 | 21.5 | 8.47 | 7.53 | 12.6 | 13.4 | 17.8 | 6.06 | 6.81 | 0.795 | 1.29 | 1.27
